# In patent publication US20220048967A1 (published 2022):
# Numbered stars: 1 amine (or outer) side, 2 acyl side, 3 side chain; on linkers, the order of the positions; unused ones are H or OH. Square brackets hold non-standard residues; d marks the D form. Side chains are listed from the residue outwards. Ends that are not written are not given here. * marks the point of attachment. C20 diacid = O=C(O)CCCCCCCCCCCCCCCCCCC(=O)*; C18 diacid = O=C(O)CCCCCCCCCCCCCCCCC(=O)*; γGlu = O=C(O)[C@H](CCC(=O)[*:2])N[*:1]; AEEA = NCCOCCOCC(=O)O; Aib = CC(C)(N)C(=O)O
# T1: human gastric inhibitory peptide receptor (GIPR) (human, UniProt P48546 22-466)
# T1 sequence (looked up): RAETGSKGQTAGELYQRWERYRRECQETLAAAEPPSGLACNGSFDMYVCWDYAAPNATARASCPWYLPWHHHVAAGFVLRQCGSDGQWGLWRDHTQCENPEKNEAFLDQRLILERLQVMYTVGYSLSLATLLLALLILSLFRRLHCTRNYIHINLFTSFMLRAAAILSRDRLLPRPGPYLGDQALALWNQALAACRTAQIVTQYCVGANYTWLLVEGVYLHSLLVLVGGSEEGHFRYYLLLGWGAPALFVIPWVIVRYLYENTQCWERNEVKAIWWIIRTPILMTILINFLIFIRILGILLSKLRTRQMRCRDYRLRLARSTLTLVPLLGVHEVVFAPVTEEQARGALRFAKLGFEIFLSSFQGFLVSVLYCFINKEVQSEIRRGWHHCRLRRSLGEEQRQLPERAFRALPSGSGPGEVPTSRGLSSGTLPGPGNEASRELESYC
# B1: Example 320 (peptide)
# peptide: Y[Aib]EGTFTSDYSILLDKK([AEEA-AEEA-γGlu-C18 diacid])AQ[Aib]DFIEYLIEGGPSSG-NH2
# modifications: N-terminus assumed
# SMILES: CC[C@H](C)[C@H](NC(=O)[C@H](CC(C)C)NC(=O)[C@H](Cc1ccc(O)cc1)NC(=O)[C@H](CCC(=O)O)NC(=O)[C@@H](NC(=O)[C@H](Cc1ccccc1)NC(=O)[C@H](CC(=O)O)NC(=O)C(C)(C)NC(=O)[C@H](CCC(N)=O)NC(=O)[C@H](C)NC(=O)[C@H](CCCCNC(=O)COCCOCCNC(=O)COCCOCCNC(=O)CC[C@H](NC(=O)CCCCCCCCCCCCCCCCC(=O)O)C(=O)O)NC(=O)[C@H](CCCCN)NC(=O)[C@H](CC(=O)O)NC(=O)[C@H](CC(C)C)NC(=O)[C@H](CC(C)C)NC(=O)[C@@H](NC(=O)[C@H](CO)NC(=O)[C@H](Cc1ccc(O)cc1)NC(=O)[C@H](CC(=O)O)NC(=O)[C@H](CO)NC(=O)[C@@H](NC(=O)[C@H](Cc1ccccc1)NC(=O)[C@@H](NC(=O)CNC(=O)[C@H](CCC(=O)O)NC(=O)C(C)(C)NC(=O)[C@@H](N)Cc1ccc(O)cc1)[C@@H](C)O)[C@@H](C)O)[C@@H](C)CC)[C@@H](C)CC)C(=O)N[C@@H](CCC(=O)O)C(=O)NCC(=O)NCC(=O)N1CCC[C@H]1C(=O)N[C@@H](CO)C(=O)N[C@@H](CO)C(=O)NCC(N)=O
# B2: Example 318 (peptide)
# peptide: Y[Aib]EGTFTSDYSILLDKK([AEEA-AEEA-γGlu-C20 diacid])AQ[Aib]EFIEYLIAGGPSSG-NH2
# modifications: N-terminus assumed
# SMILES: CC[C@H](C)[C@H](NC(=O)[C@H](CC(C)C)NC(=O)[C@H](Cc1ccc(O)cc1)NC(=O)[C@H](CCC(=O)O)NC(=O)[C@@H](NC(=O)[C@H](Cc1ccccc1)NC(=O)[C@H](CCC(=O)O)NC(=O)C(C)(C)NC(=O)[C@H](CCC(N)=O)NC(=O)[C@H](C)NC(=O)[C@H](CCCCNC(=O)COCCOCCNC(=O)COCCOCCNC(=O)CC[C@H](NC(=O)CCCCCCCCCCCCCCCCCCC(=O)O)C(=O)O)NC(=O)[C@H](CCCCN)NC(=O)[C@H](CC(=O)O)NC(=O)[C@H](CC(C)C)NC(=O)[C@H](CC(C)C)NC(=O)[C@@H](NC(=O)[C@H](CO)NC(=O)[C@H](Cc1ccc(O)cc1)NC(=O)[C@H](CC(=O)O)NC(=O)[C@H](CO)NC(=O)[C@@H](NC(=O)[C@H](Cc1ccccc1)NC(=O)[C@@H](NC(=O)CNC(=O)[C@H](CCC(=O)O)NC(=O)C(C)(C)NC(=O)[C@@H](N)Cc1ccc(O)cc1)[C@@H](C)O)[C@@H](C)O)[C@@H](C)CC)[C@@H](C)CC)C(=O)N[C@@H](C)C(=O)NCC(=O)NCC(=O)N1CCC[C@H]1C(=O)N[C@@H](CO)C(=O)N[C@@H](CO)C(=O)NCC(N)=O
# B3: Example 321 (peptide)
# peptide: Y[Aib]EGTFTSDYSILLDKK([AEEA-AEEA-γGlu-C18 diacid])AQ[Aib]TFIEYLIEGGPSSG-NH2
# modifications: N-terminus assumed
# SMILES: CC[C@H](C)[C@H](NC(=O)[C@H](CC(C)C)NC(=O)[C@H](Cc1ccc(O)cc1)NC(=O)[C@H](CCC(=O)O)NC(=O)[C@@H](NC(=O)[C@H](Cc1ccccc1)NC(=O)[C@@H](NC(=O)C(C)(C)NC(=O)[C@H](CCC(N)=O)NC(=O)[C@H](C)NC(=O)[C@H](CCCCNC(=O)COCCOCCNC(=O)COCCOCCNC(=O)CC[C@H](NC(=O)CCCCCCCCCCCCCCCCC(=O)O)C(=O)O)NC(=O)[C@H](CCCCN)NC(=O)[C@H](CC(=O)O)NC(=O)[C@H](CC(C)C)NC(=O)[C@H](CC(C)C)NC(=O)[C@@H](NC(=O)[C@H](CO)NC(=O)[C@H](Cc1ccc(O)cc1)NC(=O)[C@H](CC(=O)O)NC(=O)[C@H](CO)NC(=O)[C@@H](NC(=O)[C@H](Cc1ccccc1)NC(=O)[C@@H](NC(=O)CNC(=O)[C@H](CCC(=O)O)NC(=O)C(C)(C)NC(=O)[C@@H](N)Cc1ccc(O)cc1)[C@@H](C)O)[C@@H](C)O)[C@@H](C)CC)[C@@H](C)O)[C@@H](C)CC)C(=O)N[C@@H](CCC(=O)O)C(=O)NCC(=O)NCC(=O)N1CCC[C@H]1C(=O)N[C@@H](CO)C(=O)N[C@@H](CO)C(=O)NCC(N)=O
# B4: Example 317 (peptide)
# peptide: Y[Aib]EGTFTSDYSILLDKK([AEEA-AEEA-γGlu-C20 diacid])AQ[Aib]AFIEYLIAGGPSSG-NH2
# modifications: N-terminus assumed
# SMILES: CC[C@H](C)[C@H](NC(=O)[C@H](CC(C)C)NC(=O)[C@H](Cc1ccc(O)cc1)NC(=O)[C@H](CCC(=O)O)NC(=O)[C@@H](NC(=O)[C@H](Cc1ccccc1)NC(=O)[C@H](C)NC(=O)C(C)(C)NC(=O)[C@H](CCC(N)=O)NC(=O)[C@H](C)NC(=O)[C@H](CCCCNC(=O)COCCOCCNC(=O)COCCOCCNC(=O)CC[C@H](NC(=O)CCCCCCCCCCCCCCCCCCC(=O)O)C(=O)O)NC(=O)[C@H](CCCCN)NC(=O)[C@H](CC(=O)O)NC(=O)[C@H](CC(C)C)NC(=O)[C@H](CC(C)C)NC(=O)[C@@H](NC(=O)[C@H](CO)NC(=O)[C@H](Cc1ccc(O)cc1)NC(=O)[C@H](CC(=O)O)NC(=O)[C@H](CO)NC(=O)[C@@H](NC(=O)[C@H](Cc1ccccc1)NC(=O)[C@@H](NC(=O)CNC(=O)[C@H](CCC(=O)O)NC(=O)C(C)(C)NC(=O)[C@@H](N)Cc1ccc(O)cc1)[C@@H](C)O)[C@@H](C)O)[C@@H](C)CC)[C@@H](C)CC)C(=O)N[C@@H](C)C(=O)NCC(=O)NCC(=O)N1CCC[C@H]1C(=O)N[C@@H](CO)C(=O)N[C@@H](CO)C(=O)NCC(N)=O
# B5: Example 319 (peptide)
# peptide: Y[Aib]EGTFTSDYSILLDKK([AEEA-AEEA-γGlu-C20 diacid])AQ[Aib]EFIEYLIAGGPSSGAPPPS-NH2
# modifications: N-terminus assumed
# SMILES: CC[C@H](C)[C@H](NC(=O)[C@H](CC(C)C)NC(=O)[C@H](Cc1ccc(O)cc1)NC(=O)[C@H](CCC(=O)O)NC(=O)[C@@H](NC(=O)[C@H](Cc1ccccc1)NC(=O)[C@H](CCC(=O)O)NC(=O)C(C)(C)NC(=O)[C@H](CCC(N)=O)NC(=O)[C@H](C)NC(=O)[C@H](CCCCNC(=O)COCCOCCNC(=O)COCCOCCNC(=O)CC[C@H](NC(=O)CCCCCCCCCCCCCCCCCCC(=O)O)C(=O)O)NC(=O)[C@H](CCCCN)NC(=O)[C@H](CC(=O)O)NC(=O)[C@H](CC(C)C)NC(=O)[C@H](CC(C)C)NC(=O)[C@@H](NC(=O)[C@H](CO)NC(=O)[C@H](Cc1ccc(O)cc1)NC(=O)[C@H](CC(=O)O)NC(=O)[C@H](CO)NC(=O)[C@@H](NC(=O)[C@H](Cc1ccccc1)NC(=O)[C@@H](NC(=O)CNC(=O)[C@H](CCC(=O)O)NC(=O)C(C)(C)NC(=O)[C@@H](N)Cc1ccc(O)cc1)[C@@H](C)O)[C@@H](C)O)[C@@H](C)CC)[C@@H](C)CC)C(=O)N[C@@H](C)C(=O)NCC(=O)NCC(=O)N1CCC[C@H]1C(=O)N[C@@H](CO)C(=O)N[C@@H](CO)C(=O)NCC(=O)N[C@@H](C)C(=O)N1CCC[C@H]1C(=O)N1CCC[C@H]1C(=O)N1CCC[C@H]1C(=O)N[C@@H](CO)C(N)=O
# B6: Example 316 (peptide)
# peptide: Y[Aib]EGTFTSDYSILLDKK([AEEA-AEEA-γGlu-C18 diacid])AQ[Aib]AFIEYLIAGGPSSGAPPPS-NH2
# modifications: N-terminus assumed
# SMILES: CC[C@H](C)[C@H](NC(=O)[C@H](CC(C)C)NC(=O)[C@H](Cc1ccc(O)cc1)NC(=O)[C@H](CCC(=O)O)NC(=O)[C@@H](NC(=O)[C@H](Cc1ccccc1)NC(=O)[C@H](C)NC(=O)C(C)(C)NC(=O)[C@H](CCC(N)=O)NC(=O)[C@H](C)NC(=O)[C@H](CCCCNC(=O)COCCOCCNC(=O)COCCOCCNC(=O)CC[C@H](NC(=O)CCCCCCCCCCCCCCCCC(=O)O)C(=O)O)NC(=O)[C@H](CCCCN)NC(=O)[C@H](CC(=O)O)NC(=O)[C@H](CC(C)C)NC(=O)[C@H](CC(C)C)NC(=O)[C@@H](NC(=O)[C@H](CO)NC(=O)[C@H](Cc1ccc(O)cc1)NC(=O)[C@H](CC(=O)O)NC(=O)[C@H](CO)NC(=O)[C@@H](NC(=O)[C@H](Cc1ccccc1)NC(=O)[C@@H](NC(=O)CNC(=O)[C@H](CCC(=O)O)NC(=O)C(C)(C)NC(=O)[C@@H](N)Cc1ccc(O)cc1)[C@@H](C)O)[C@@H](C)O)[C@@H](C)CC)[C@@H](C)CC)C(=O)N[C@@H](C)C(=O)NCC(=O)NCC(=O)N1CCC[C@H]1C(=O)N[C@@H](CO)C(=O)N[C@@H](CO)C(=O)NCC(=O)N[C@@H](C)C(=O)N1CCC[C@H]1C(=O)N1CCC[C@H]1C(=O)N1CCC[C@H]1C(=O)N[C@@H](CO)C(N)=O
# Target: T1, human gastric inhibitory peptide …
# Experiment: cell-based or functional assay
Binder,hGIPR cAMP EC50 ratio,hGIPR cAMP Rel EC50 [nM]
B1,0.241,0.161
B2,1.69,0.0547
B3,0.517,0.0752
B4,1.01,0.0948
B5,2.77,0.054
B6,3.75,0.024

# Target: human GLP-1 receptor (GLP-1R) (human, UniProt P43220 24-463)
# Experiment: cell-based or functional assay
Binder,hGLP1R cAMP EC50 ratio,hGLP1R cAMP Rel EC50 [nM]
B1,0.224,0.397
B2,0.482,0.124
B3,0.437,0.204
B4,0.333,0.172
B5,0.522,0.113
B6,0.644,0.122
